The record followed here is patent publication US20030148956A1 (PROCTER AND GAMBLE, published 2003).

Substitutions are numbered along the chain they refer to. Ends that are not written are not given here.

To fix the notation:
T1: corticotropin releasing factor 2 receptor
T1 sequence (Q13324 whole entry, species assumed, looked up): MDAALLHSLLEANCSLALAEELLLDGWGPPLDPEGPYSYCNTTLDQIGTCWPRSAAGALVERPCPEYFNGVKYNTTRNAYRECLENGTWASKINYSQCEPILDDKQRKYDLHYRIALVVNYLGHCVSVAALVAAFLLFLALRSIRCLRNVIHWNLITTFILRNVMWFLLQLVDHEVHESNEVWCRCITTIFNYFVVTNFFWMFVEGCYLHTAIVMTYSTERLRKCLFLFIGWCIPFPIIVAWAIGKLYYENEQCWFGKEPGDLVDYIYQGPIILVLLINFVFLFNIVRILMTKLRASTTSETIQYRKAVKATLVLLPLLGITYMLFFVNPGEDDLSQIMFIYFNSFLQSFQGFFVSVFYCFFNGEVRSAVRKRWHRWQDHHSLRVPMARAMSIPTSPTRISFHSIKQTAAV

B1: SEQ ID NO 301 (peptide)
peptide: ZGPPISIDLPTALLRKMIEIEKQEKEKQQAANNRLLLDTI
modifications: not fully specified; C-terminal amide
B2: SEQ ID NO 302 (peptide)
peptide: B1 peptide with T11Q
modifications: not fully specified; C-terminal amide
B3: SEQ ID NO 318 (peptide)
peptide: B1 peptide with T11F, A12F, R34A
modifications: C-terminal amide
B4: SEQ ID NO 310 (peptide)
peptide: B1 peptide with T11Y, A12W, R34A
modifications: C-terminal amide
B5: SEQ ID NO 307 (peptide)
peptide: B1 peptide with T11F
modifications: not fully specified; C-terminal amide
B6: SEQ ID NO 309 (peptide)
peptide: B1 peptide with T11Y
modifications: not fully specified; C-terminal amide
B7: SEQ ID NO 305 (peptide)
peptide: B1 peptide with T11V
modifications: not fully specified; C-terminal amide
B8: SEQ ID NO 304 (peptide)
peptide: B1 peptide with T11H
modifications: not fully specified; C-terminal amide
B9: SEQ ID NO 314 (peptide)
peptide: B1 peptide with T11Y, A12H, R34A
modifications: C-terminal amide
B10: SEQ ID NO 303 (peptide)
peptide: B1 peptide with T11A
modifications: not fully specified; C-terminal amide
B11: SEQ ID NO 308 (peptide)
peptide: B1 peptide with T11L
modifications: not fully specified; C-terminal amide
B12: SEQ ID NO 306 (peptide)
peptide: B1 peptide with T11I
modifications: not fully specified; C-terminal amide
B13: SEQ ID NO 300 (peptide)
peptide: IVLSLDVPIGLLQKVIEIEKQEKEKQQATTNARILARV-NH2
B14: SEQ ID NO 315 (peptide)
peptide: ZGPPISIDLPYHLLRKMIEIEKQEKEKQQAANNALLLAT
modifications: C-terminal amide
B15: SEQ ID NO 323 (peptide)
peptide: DNPSLSIDLPLLLLRTLLELEKTQSQRERAEQNAEIFAEV-NH2
B16: SEQ ID NO 324 (peptide)
peptide: DNPSLSIDLPLLLLRTLLELEKTQSQRERAEQNAQIFAHV-NH2
B17: SEQ ID NO 320 (peptide)
peptide: ZGPPISIDLPLQLLRKVIEIEKQEKEKQQATTNARILARV
modifications: C-terminal amide
B18: SEQ ID NO 321 (peptide)
peptide: B17 peptide with L11F, V17T, I36L, A38D
modifications: C-terminal amide
B19: SEQ ID NO 322 (peptide)
peptide: IVLSLDVPIGLLQKMIEIEKQEKEKQQATTNARILARV-NH2
B20: SEQ ID NO 325 (peptide)
peptide: IVLSLDVPIGLLQILLEQEKARAAREQATTNARILARV-NH2
B21: SEQ ID NO 296 (peptide)
peptide: HHHHHHIVLSLDVPIGLLQILLEQARARAAREQATTNARILARN-NH2
B22: SEQ ID NO 295 (peptide)
peptide: ZGPPISIDLPIILLRKVIEIEKQEKEKQQAANNARLLARI
modifications: C-terminal amide
B23: SEQ ID NO 311 (peptide)
peptide: B1 peptide with T11Y, A12W, M17V, R34A
modifications: C-terminal amide
B24: SEQ ID NO 312 (peptide)
peptide: B1 peptide with T11Y, A12H, M17V, R34A
modifications: C-terminal amide
B25: SEQ ID NO 317 (peptide)
peptide: B22 peptide with I11F, I12F, R35L, R39T
modifications: C-terminal amide
B26: SEQ ID NO 319 (peptide)
peptide: B1 peptide with T11F, A12F, R34A, D38A
modifications: C-terminal amide
B27: SEQ ID NO 313 (peptide)
peptide: B22 peptide with I11Y, I12H, R35L, R39T
modifications: C-terminal amide
B28: SEQ ID NO 297 (peptide)
peptide: B1 peptide with T11I, A12I, M17V
modifications: C-terminal amide
B29: SEQ ID NO 299 (peptide)
peptide: B22 peptide with I11Q, R35L, R39T
modifications: C-terminal amide
B30: SEQ ID NO 298 (peptide)
peptide: B22 peptide with I12F, V17M, R35L, R39T
modifications: C-terminal amide
B31: SEQ ID NO 316 (peptide)
peptide: B1 peptide with T11F, A12F, M17V, R34A
modifications: C-terminal amide

One assay deals with T1, corticotropin releasing factor 2 …. In words: cell-based or functional assay.
For the molecule B1, the “CRF2R EC50” value came out at 50.5 nM and the “CRF2R Emax %” value amounted to 88.4%.
In the case of B2, the “CRF2R EC50” value stood at 36.2 nM and the “CRF2R Emax %” value is 100%.
For B3 the same measures were 9.95 nM and 95.4%.
For B4 the same measures were 8.7 nM and 87.5%.
With B5, the “CRF2R EC50” value came out at 5.82 nM and the “CRF2R Emax %” value was found to be 96.5%.
For B6, the “CRF2R EC50” value came out at 5.55 nM and the “CRF2R Emax %” value was determined as 99.9%.
For B7 the same measures were 35.5 nM and 95.2%.
For B8 the same measures were 19.3 nM and 92.5%.
For B9, the “CRF2R EC50” value stood at 10.3 nM and the “CRF2R Emax %” value was found to be 99.8%.
For B10 the same measures were 27.2 nM and 100%.
For B11 the same measures were 3.3 nM and 72.8%.
B12: the “CRF2R EC50” value was found to be 27.6 nM and the “CRF2R Emax %” value was determined as 100%.
For B13 the same measures were 17.1 nM and 100%.
For B14 the same measures were 9.35 nM and 81.7%.
For B15 the same measures were 19.6 nM and 100%.
Take B16: the “CRF2R EC50” value was 17.2 nM and the “CRF2R Emax %” value was found to be 100%.
For B17 the same measures were 19.1 nM and 100%.
As for B18, the “CRF2R EC50” value was 19.6 nM and the “CRF2R Emax %” value is 86.8%.
For B19 the same measures were 23.1 nM and 96.5%.
For B20 the same measures were 11.7 nM and 100%.
Regarding B21, the “CRF2R EC50” value stood at 6.66 nM and the “CRF2R Emax %” value came out at 65%.
For B22 the same measures were 55 nM and 67.6%.
For B23, the “CRF2R EC50” value turned out to be 11.7 nM and the “CRF2R Emax %” value worked out at 100%.
For B24 the same measures were 14.1 nM and 95%.
For B25 the same measures were 9.3 nM and 88.3%.
In the case of B26, the “CRF2R EC50” value was found to be 8.5 nM and the “CRF2R Emax %” value amounted to 95%.
With B27, the “CRF2R EC50” value came out at 11.1 nM and the “CRF2R Emax %” value came to 95%.
For the molecule B28, the “CRF2R EC50” value was 100 nM and the “CRF2R Emax %” value amounted to 88.3%.
As to B29, the “CRF2R EC50” value came out at 46.4 nM and the “CRF2R Emax %” value came to 71.5%.
For B30 the same measures were 82 nM and 98.8%.
For B31 the same measures were 10.2 nM and 94.5%.

The next assay addresses corticotropin releasing factor 1 receptor. The assay is described as follows: cell-based or functional assay.
Take B1: the “CRF1R EC50” value was 690 nM and the “CRF1R Emax %” value is 84.1%.
For the molecule B2, the “CRF1R EC50” value was determined as 366 nM and the “CRF1R Emax %” value came to 100%.
On to B3, for which the “CRF1R EC50” value turned out to be 134 nM and the “CRF1R Emax %” value turned out to be 92.8%.
For B4 the same measures were 1000 nM and 45.3%.
For B5 the same measures were 78.4 nM and 92.7%.
Regarding B6, the “CRF1R EC50” value turned out to be 108 nM and the “CRF1R Emax %” value came out at 96.3%.
For B7 the same measures were 1000 nM and 59.5%.
B8: the “CRF1R EC50” value was 116 nM and the “CRF1R Emax %” value turned out to be 100%.
For B9 the same measures were 978 nM and 82.4%.
For B10, the “CRF1R EC50” value is 582 nM and the “CRF1R Emax %” value is 100%.
For B11 the same measures were 63.5 nM and 100%.
For B12 the same measures were 608 nM and 97.7%.
For B13 the same measures were 1000 nM and 7.95%.
B14: the “CRF1R EC50” value turned out to be 454 nM and the “CRF1R Emax %” value stood at 100%.
For B15 the same measures were 1000 nM and 36.9%.
On to B16, for which the “CRF1R EC50” value was 1000 nM and the “CRF1R Emax %” value was determined as 46.6%.
For B17 the same measures were 718 nM and 68.8%.
For B18, the “CRF1R EC50” value was found to be 1000 nM and the “CRF1R Emax %” value turned out to be 33.8%.
For the molecule B19, the “CRF1R EC50” value was 1000 nM and the “CRF1R Emax %” value was 10.7%.
For B20 the same measures were 100 nM and 5%.
For B21 the same measures were 100 nM and 4%.
On to B22, for which the “CRF1R EC50” value is 1000 nM and the “CRF1R Emax %” value amounted to 5.3%.
For B23 the same measures were 1000 nM and 29.7%.
For B24 the same measures were 870 nM and 62%.
On to B25, for which the “CRF1R EC50” value is 188 nM and the “CRF1R Emax %” value is 100%.
As to B26, the “CRF1R EC50” value was determined as 106 nM and the “CRF1R Emax %” value amounted to 88.3%.
For B27 the same measures were 704 nM and 87.1%.
Take B28: the “CRF1R EC50” value is 1000 nM and the “CRF1R Emax %” value worked out at 27.2%.
For B29 the same measures were 1000 nM and 10.2%.
B30: the “CRF1R EC50” value was determined as 1000 nM and the “CRF1R Emax %” value was 20.1%.
Consider B31, for which the “CRF1R EC50” value was 222 nM and the “CRF1R Emax %” value came to 92.3%.
